The supplement of paper PMC9112550, “Optimization of the antimicrobial peptide Bac7 by deep mutational scanning” (BMC Biology, 2022)
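Further: peptides expressed intracellularly from a pBAD plasmid library in pooled LB shake-flask culture, induced with 0.3% L-arabinose, DNA abundance read by NGS, three biological replicates, DESeq2 with apeglm shrinkage.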

Each sequence was assayed on Escherichia coli TOP10 (assay: shrunken log2 fold change of peptide-encoding DNA abundance (4.5 h post-induction vs induction); higher = less antimicrobial activity (less host growth inhibition)). Details: time post-induction: 4.5 h; library: site-saturation at positions 5, 18, 19, 20.
In the case of RRIRDRPPRLPRPRPRPRRIPRP, the “shrunken log2 fold change” value is reported as 0.0214. With RRIRARPPRLPRPRPRPVWAPRP the “shrunken log2 fold change” value was 0.305. In the case of RRIRPRPPRLPRPRPRPPDDPRP, the “shrunken log2 fold change” value is reported as 0.142. RRIRVRPPRLPRPRPRPTWEPRP was tested, and the “shrunken log2 fold change” value was 0.00966. With RRIRHRPPRLPRPRPRPFYWPRP the “shrunken log2 fold change” value was -0.0655. With RRIRQRPPRLPRPRPRPAKKPRP the “shrunken log2 fold change” value was -0.0522. RRIRWRPPRLPRPRPRPPCTPRP was tested, and the “shrunken log2 fold change” value was 0.124. With RRIRWRPPRLPRPRPRPPKPPRP the “shrunken log2 fold change” value was 0.648. For RRIRVRPPRLPRPRPRPKNPPRP, the “shrunken log2 fold change” value was -0.17. In the case of RRIRGRPPRLPRPRPRPAHAPRP, the “shrunken log2 fold change” value is reported as 1.06. For RRIRKRPPRLPRPRPRPGFYPRP, the “shrunken log2 fold change” value was 0.00129. In the case of RRIRIRPPRLPRPRPRPKCCPRP, the “shrunken log2 fold change” value is reported as -0.143. RRIRYRPPRLPRPRPRPPPGPRP was tested, and the “shrunken log2 fold change” value was 0.909. With RRIRARPPRLPRPRPRPWADPRP the “shrunken log2 fold change” value was 0.0394. RRIRSRPPRLPRPRPRPWLNPRP was tested, and the “shrunken log2 fold change” value was -0.119. RRIRFRPPRLPRPRPRPWRGPRP was tested, and the “shrunken log2 fold change” value was 0.172. In the case of RRIRCRPPRLPRPRPRPRGAPRP, the “shrunken log2 fold change” value is reported as 0.766. In the case of RRIRRRPPRLPRPRPRPWHYPRP, the “shrunken log2 fold change” value is reported as -0.0356. In the case of RRIRWRPPRLPRPRPRPFAIPRP, the “shrunken log2 fold change” value is reported as 0.086. RRIRKRPPRLPRPRPRPWISPRP was tested, and the “shrunken log2 fold change” value was 0.0313. For RRIRARPPRLPRPRPRPGQIPRP, the “shrunken log2 fold change” value was 0.216. RRIRPRPPRLPRPRPRPREGPRP was tested, and the “shrunken log2 fold change” value was 0.891. With RRIRHRPPRLPRPRPRPQKGPRP the “shrunken log2 fold change” value was -0.0617. In the case of RRIRGRPPRLPRPRPRPLQYPRP, the “shrunken log2 fold change” value is reported as -0.251. With RRIRERPPRLPRPRPRPVAQPRP the “shrunken log2 fold change” value was -0.201. With RRIRGRPPRLPRPRPRPPYVPRP the “shrunken log2 fold change” value was -0.21. In the case of RRIRNRPPRLPRPRPRPVTYPRP, the “shrunken log2 fold change” value is reported as -0.168. With RRIRARPPRLPRPRPRPFAAPRP the “shrunken log2 fold change” value was 0.644. With RRIRFRPPRLPRPRPRPGICPRP the “shrunken log2 fold change” value was -0.0925. In the case of RRIRFRPPRLPRPRPRPEVYPRP, the “shrunken log2 fold change” value is reported as 0.000414. For RRIRDRPPRLPRPRPRPKYEPRP, the “shrunken log2 fold change” value was -0.00728. For RRIRIRPPRLPRPRPRPSCDPRP, the “shrunken log2 fold change” value was 0.346. For RRIRYRPPRLPRPRPRPLLRPRP, the “shrunken log2 fold change” value was -0.468. In the case of RRIRNRPPRLPRPRPRPNPQPRP, the “shrunken log2 fold change” value is reported as 0.166. With RRIRFRPPRLPRPRPRPMLTPRP the “shrunken log2 fold change” value was -0.351. With RRIRSRPPRLPRPRPRPWAVPRP the “shrunken log2 fold change” value was -0.0517. For RRIRMRPPRLPRPRPRPRFDPRP, the “shrunken log2 fold change” value was 0.364. RRIRMRPPRLPRPRPRPMALPRP was tested, and the “shrunken log2 fold change” value was 0.517. RRIRIRPPRLPRPRPRPWHYPRP was tested, and the “shrunken log2 fold change” value was -0.111. RRIRARPPRLPRPRPRPVEDPRP was tested, and the “shrunken log2 fold change” value was 0.0532. RRIRSRPPRLPRPRPRPLVKPRP was tested, and the “shrunken log2 fold change” value was -0.111. For RRIRPRPPRLPRPRPRPDDKPRP, the “shrunken log2 fold change” value was -0.0729. With RRIRFRPPRLPRPRPRPLWYPRP the “shrunken log2 fold change” value was -0.721. For RRIRPRPPRLPRPRPRPETEPRP, the “shrunken log2 fold change” value was 0.344. RRIRFRPPRLPRPRPRPDACPRP was tested, and the “shrunken log2 fold change” value was 0.0499. For RRIRHRPPRLPRPRPRPEIGPRP, the “shrunken log2 fold change” value was 0.103. In the case of RRIRIRPPRLPRPRPRPKNKPRP, the “shrunken log2 fold change” value is reported as -0.68. In the case of RRIRVRPPRLPRPRPRPIPAPRP, the “shrunken log2 fold change” value is reported as 0.000426. With RRIRARPPRLPRPRPRPDASPRP the “shrunken log2 fold change” value was 1.94. RRIRQRPPRLPRPRPRPGCVPRP was tested, and the “shrunken log2 fold change” value was 0.269. In the case of RRIRCRPPRLPRPRPRPAYSPRP, the “shrunken log2 fold change” value is reported as -0.97. For RRIRNRPPRLPRPRPRPDTHPRP, the “shrunken log2 fold change” value was -0.105. In the case of RRIRMRPPRLPRPRPRPWGMPRP, the “shrunken log2 fold change” value is reported as 0.187. With RRIRRRPPRLPRPRPRPSHSPRP the “shrunken log2 fold change” value was -0.00512. In the case of RRIRRRPPRLPRPRPRPTWGPRP, the “shrunken log2 fold change” value is reported as 0.42. For RRIRQRPPRLPRPRPRPSYLPRP, the “shrunken log2 fold change” value was -0.482. RRIRPRPPRLPRPRPRPQLRPRP was tested, and the “shrunken log2 fold change” value was -0.0759. With RRIRSRPPRLPRPRPRPQPAPRP the “shrunken log2 fold change” value was 0.0373. With RRIRSRPPRLPRPRPRPQDPPRP the “shrunken log2 fold change” value was 0.122. RRIRTRPPRLPRPRPRPLDHPRP was tested, and the “shrunken log2 fold change” value was -0.186. RRIRNRPPRLPRPRPRPADYPRP was tested, and the “shrunken log2 fold change” value was -0.24. In the case of RRIRFRPPRLPRPRPRPYTIPRP, the “shrunken log2 fold change” value is reported as 0.0439. For RRIRSRPPRLPRPRPRPFSYPRP, the “shrunken log2 fold change” value was -0.0241. In the case of RRIRDRPPRLPRPRPRPEYFPRP, the “shrunken log2 fold change” value is reported as 0.0472. For RRIRCRPPRLPRPRPRPVCRPRP, the “shrunken log2 fold change” value was -0.0309. For RRIRKRPPRLPRPRPRPRTIPRP, the “shrunken log2 fold change” value was 0.262. For RRIRWRPPRLPRPRPRPYTLPRP, the “shrunken log2 fold change” value was -0.681. In the case of RRIRDRPPRLPRPRPRPPWDPRP, the “shrunken log2 fold change” value is reported as 0.442. For RRIRNRPPRLPRPRPRPNYMPRP, the “shrunken log2 fold change” value was -0.784. With RRIRIRPPRLPRPRPRPSEEPRP the “shrunken log2 fold change” value was -0.188. In the case of RRIRLRPPRLPRPRPRPMFRPRP, the “shrunken log2 fold change” value is reported as -0.162. For RRIRFRPPRLPRPRPRPAYNPRP, the “shrunken log2 fold change” value was -0.486. For RRIRGRPPRLPRPRPRPRRTPRP, the “shrunken log2 fold change” value was 0.67. With RRIRPRPPRLPRPRPRPPAVPRP the “shrunken log2 fold change” value was 0.37. With RRIRIRPPRLPRPRPRPIIMPRP the “shrunken log2 fold change” value was -0.34.
